Source: the supplement of paper PMC9112550, “Optimization of the antimicrobial peptide Bac7 by deep mutational scanning” (BMC Biology, 2022)

tested on: Escherichia coli TOP10; assay: shrunken log2 fold change of peptide-encoding DNA abundance (4.5 h post-induction vs induction); higher = less antimicrobial activity (less host growth inhibition); settings: time post-induction: 4.5 h; library: site-saturation at positions 5, 18, 19, 20
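Note: peptides expressed intracellularly from a pBAD plasmid library in pooled LB shake-flask culture, induced with 0.3% L-arabinose, DNA abundance read by NGS, three biological replicates, DESeq2 with apeglm shrinkage.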

Row | Sequence | shrunken log2 fold change
1 | RRIRVRPPRLPRPRPRPCRVPRP | 0.00617
2 | RRIRKRPPRLPRPRPRPEQRPRP | 0.431
3 | RRIRARPPRLPRPRPRPCHMPRP | -0.0816
4 | RRIRDRPPRLPRPRPRPYQLPRP | -0.0742
5 | RRIRRRPPRLPRPRPRPEPHPRP | 0.315
6 | RRIRARPPRLPRPRPRPFADPRP | 0.438
7 | RRIRLRPPRLPRPRPRPNCAPRP | 0.415
8 | RRIRMRPPRLPRPRPRPYHNPRP | -0.47
9 | RRIRKRPPRLPRPRPRPFWLPRP | 0.341
10 | RRIRNRPPRLPRPRPRPRVDPRP | 0.0415
11 | RRIRERPPRLPRPRPRPWTLPRP | -0.407
12 | RRIRERPPRLPRPRPRPIECPRP | -0.339
13 | RRIRVRPPRLPRPRPRPKDCPRP | -0.107
14 | RRIRTRPPRLPRPRPRPSNWPRP | -0.281
15 | RRIRWRPPRLPRPRPRPNMWPRP | 0.0493
16 | RRIRQRPPRLPRPRPRPAIWPRP | -0.143
17 | RRIRNRPPRLPRPRPRPSWAPRP | -0.249
18 | RRIRPRPPRLPRPRPRPMVWPRP | 0.212
19 | RRIRMRPPRLPRPRPRPLLWPRP | 0.914
20 | RRIRQRPPRLPRPRPRPDRFPRP | 0.0204
21 | RRIRGRPPRLPRPRPRPKCPPRP | 0.625
22 | RRIRPRPPRLPRPRPRPEMYPRP | -0.269
23 | RRIRIRPPRLPRPRPRPGQKPRP | -0.0432
24 | RRIRFRPPRLPRPRPRPLACPRP | -0.162
25 | RRIRLRPPRLPRPRPRPVYFPRP | -0.455

Row | Sequence | shrunken log2 fold change
26 | RRIRIRPPRLPRPRPRPVERPRP | 0.0257
27 | RRIRLRPPRLPRPRPRPVCYPRP | -0.156
28 | RRIRWRPPRLPRPRPRPKSPPRP | 0.819
29 | RRIRPRPPRLPRPRPRPNYWPRP | -0.234
30 | RRIRFRPPRLPRPRPRPCPHPRP | -0.135
31 | RRIRERPPRLPRPRPRPCGRPRP | -0.0316
32 | RRIRFRPPRLPRPRPRPSHCPRP | -0.28
33 | RRIRCRPPRLPRPRPRPKREPRP | 0.636
34 | RRIRVRPPRLPRPRPRPRHQPRP | -0.138
35 | RRIRNRPPRLPRPRPRPYLDPRP | -0.181
36 | RRIRKRPPRLPRPRPRPAEHPRP | 0.12
37 | RRIRKRPPRLPRPRPRPSGRPRP | 0.288
38 | RRIRERPPRLPRPRPRPEVIPRP | -0.00884
39 | RRIRDRPPRLPRPRPRPSPEPRP | 0.778
40 | RRIRNRPPRLPRPRPRPKTQPRP | -0.0734
41 | RRIRPRPPRLPRPRPRPAHGPRP | 0.708
42 | RRIRKRPPRLPRPRPRPMIYPRP | -0.718
43 | RRIRRRPPRLPRPRPRPDGKPRP | 0.0432
44 | RRIRGRPPRLPRPRPRPWDKPRP | 0.067
45 | RRIRERPPRLPRPRPRPNEPPRP | -0.129
46 | RRIRIRPPRLPRPRPRPVSIPRP | -0.624
47 | RRIRFRPPRLPRPRPRPRISPRP | -0.0207
48 | RRIRHRPPRLPRPRPRPKYWPRP | -0.2
49 | RRIRFRPPRLPRPRPRPYNYPRP | -1.03
50 | RRIRFRPPRLPRPRPRPDYTPRP | -0.02

Row | Sequence | shrunken log2 fold change
51 | RRIRIRPPRLPRPRPRPNVAPRP | 0.00755
52 | RRIRTRPPRLPRPRPRPYWTPRP | 0.0389
53 | RRIRTRPPRLPRPRPRPSDDPRP | -0.182
54 | RRIRGRPPRLPRPRPRPMFKPRP | 0.0694
55 | RRIRQRPPRLPRPRPRPELMPRP | -0.0508
56 | RRIRQRPPRLPRPRPRPKCFPRP | -0.25
57 | RRIRGRPPRLPRPRPRPLENPRP | 0.766
58 | RRIRERPPRLPRPRPRPLSHPRP | -0.314
59 | RRIRDRPPRLPRPRPRPVFEPRP | 0.187
60 | RRIRARPPRLPRPRPRPVKQPRP | -0.0614
61 | RRIRQRPPRLPRPRPRPGCMPRP | 0.175
62 | RRIRARPPRLPRPRPRPNYVPRP | -0.35
63 | RRIRGRPPRLPRPRPRPCWEPRP | -0.000921
64 | RRIRLRPPRLPRPRPRPVLYPRP | -0.239
65 | RRIRARPPRLPRPRPRPMALPRP | 0.272
66 | RRIRSRPPRLPRPRPRPGMEPRP | 0.148
67 | RRIRTRPPRLPRPRPRPVGHPRP | -0.00107
68 | RRIRHRPPRLPRPRPRPHSWPRP | -0.0723
69 | RRIRRRPPRLPRPRPRPRIDPRP | -0.0185
70 | RRIRNRPPRLPRPRPRPEMDPRP | 0.294
71 | RRIRPRPPRLPRPRPRPGHIPRP | -0.196
72 | RRIRARPPRLPRPRPRPFGYPRP | 0.167
73 | RRIRARPPRLPRPRPRPPVMPRP | 0.395
74 | RRIRRRPPRLPRPRPRPKHIPRP | 0.0894
75 | RRIRQRPPRLPRPRPRPQFHPRP | -0.591

Row | Sequence | shrunken log2 fold change
76 | RRIRLRPPRLPRPRPRPRRMPRP | 0.053
77 | RRIRLRPPRLPRPRPRPFWTPRP | 0.0168
78 | RRIRMRPPRLPRPRPRPGTDPRP | 1.19
79 | RRIRKRPPRLPRPRPRPTGIPRP | 0.0402
80 | RRIRYRPPRLPRPRPRPMSLPRP | 0.0155
81 | RRIRCRPPRLPRPRPRPQSRPRP | -0.016
82 | RRIRARPPRLPRPRPRPLAYPRP | 0.293
83 | RRIRRRPPRLPRPRPRPWREPRP | -0.0799
84 | RRIRVRPPRLPRPRPRPLYYPRP | -0.453
85 | RRIRKRPPRLPRPRPRPVHLPRP | -0.0295
86 | RRIRRRPPRLPRPRPRPFRSPRP | -0.0534
87 | RRIRPRPPRLPRPRPRPPQEPRP | 0.727
88 | RRIRFRPPRLPRPRPRPAWMPRP | 0.336
89 | RRIRQRPPRLPRPRPRPRMAPRP | 0.0146
90 | RRIRCRPPRLPRPRPRPLQDPRP | 0.0354
91 | RRIRVRPPRLPRPRPRPRKRPRP | 0.572
92 | RRIRVRPPRLPRPRPRPYIGPRP | -0.661
93 | RRIRTRPPRLPRPRPRPCRMPRP | -0.261
94 | RRIRVRPPRLPRPRPRPNKRPRP | -0.158
95 | RRIRTRPPRLPRPRPRPIPRPRP | 0.299
96 | RRIRCRPPRLPRPRPRPHKRPRP | 0.0953
97 | RRIRTRPPRLPRPRPRPEGVPRP | 0.122
98 | RRIRRRPPRLPRPRPRPINRPRP | 0.0995
99 | RRIRIRPPRLPRPRPRPWWAPRP | -0.255
100 | RRIRKRPPRLPRPRPRPVDHPRP | 0.147

Row | Sequence | shrunken log2 fold change
101 | RRIRKRPPRLPRPRPRPSRSPRP | 0.0164
102 | RRIRCRPPRLPRPRPRPQWMPRP | -0.0314
103 | RRIRKRPPRLPRPRPRPPSFPRP | 0.288
104 | RRIRMRPPRLPRPRPRPIYPPRP | -0.125
105 | RRIRIRPPRLPRPRPRPGHIPRP | -0.327
106 | RRIRFRPPRLPRPRPRPCDKPRP | -0.0972
107 | RRIRERPPRLPRPRPRPSMKPRP | -0.607
108 | RRIRRRPPRLPRPRPRPAFDPRP | 0.522
109 | RRIRRRPPRLPRPRPRPAVCPRP | 0.66
110 | RRIRKRPPRLPRPRPRPAQMPRP | 0.139
111 | RRIRMRPPRLPRPRPRPMRHPRP | 0.452
112 | RRIRRRPPRLPRPRPRPHCVPRP | -0.0665
113 | RRIRDRPPRLPRPRPRPCGPPRP | 0.0478
114 | RRIRKRPPRLPRPRPRPSMPPRP | 0.0159
115 | RRIRMRPPRLPRPRPRPAPMPRP | 0.953
116 | RRIRYRPPRLPRPRPRPSCDPRP | -0.74
117 | RRIRKRPPRLPRPRPRPYVNPRP | -0.526
118 | RRIRTRPPRLPRPRPRPRIGPRP | 0.116
119 | RRIRGRPPRLPRPRPRPPMQPRP | 1.12
120 | RRIRVRPPRLPRPRPRPFEDPRP | -0.151
121 | RRIRRRPPRLPRPRPRPPVIPRP | -0.139
122 | RRIRTRPPRLPRPRPRPWPDPRP | -0.0269
123 | RRIRARPPRLPRPRPRPSGRPRP | 0.0751
124 | RRIRHRPPRLPRPRPRPILVPRP | -0.148
125 | RRIRGRPPRLPRPRPRPWMTPRP | 0.034

Row | Sequence | shrunken log2 fold change
126 | RRIRRRPPRLPRPRPRPIAMPRP | 0.0579
127 | RRIRMRPPRLPRPRPRPTGYPRP | 0.0453
128 | RRIRHRPPRLPRPRPRPFVEPRP | -0.45
129 | RRIRVRPPRLPRPRPRPEHKPRP | -0.0815
130 | RRIRGRPPRLPRPRPRPYKAPRP | -0.354
131 | RRIRRRPPRLPRPRPRPSARPRP | 0.349
132 | RRIRARPPRLPRPRPRPVEHPRP | 0.068
133 | RRIRGRPPRLPRPRPRPHRYPRP | 0.0948
134 | RRIRGRPPRLPRPRPRPTWIPRP | 0.25
135 | RRIRLRPPRLPRPRPRPAWGPRP | 0.444
136 | RRIRHRPPRLPRPRPRPEAAPRP | 0.83
137 | RRIRHRPPRLPRPRPRPHCFPRP | -0.312
138 | RRIRERPPRLPRPRPRPSHWPRP | -0.292
139 | RRIRERPPRLPRPRPRPTEVPRP | -0.121
140 | RRIRSRPPRLPRPRPRPGSIPRP | -0.0732
141 | RRIRDRPPRLPRPRPRPANRPRP | -0.0377
142 | RRIRSRPPRLPRPRPRPWCFPRP | -0.715
143 | RRIRRRPPRLPRPRPRPSCNPRP | -0.112
144 | RRIRGRPPRLPRPRPRPWRRPRP | 0.054
145 | RRIRKRPPRLPRPRPRPGLWPRP | 0.66
146 | RRIRDRPPRLPRPRPRPKCTPRP | 0.0239
147 | RRIRQRPPRLPRPRPRPAFNPRP | 0.18
148 | RRIRPRPPRLPRPRPRPETAPRP | 0.396
149 | RRIRMRPPRLPRPRPRPHVIPRP | 0.00402
150 | RRIRFRPPRLPRPRPRPIIGPRP | -0.024
